Earlier results on 1 substance are cited in paper PMC8694941 (RSC Advances, 2021).

For the data set the following is noted: commonly used comparator tracer.

With [^68Ga]Ga-DOTA-c(RGDfK) (head to tail), the “partition coefficient (log D)” value is on record as “around −3.43”.
